Laboratory results: PMC10397247
Where two headings read alike, the source gives them in different places.

T1: 4H3493-AA
T1 chain: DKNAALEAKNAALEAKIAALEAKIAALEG

T2: 4H963-AA
T2 chain: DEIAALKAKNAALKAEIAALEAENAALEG

T3: 4H3381-AA
T3 chain: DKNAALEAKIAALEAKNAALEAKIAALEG

T4: 4H376-AA
T4 chain: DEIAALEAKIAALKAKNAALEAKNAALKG

T5: 4H3340-AA
T5 chain: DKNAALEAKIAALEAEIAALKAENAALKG

T6: 4H688-AA
T6 chain: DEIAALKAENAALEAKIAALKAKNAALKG

T7: 4H347-AA
T7 chain: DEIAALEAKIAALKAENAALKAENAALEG

T8: 4H406-AA
T8 chain: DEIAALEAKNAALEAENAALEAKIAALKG

T9: 4H_BCR
T9 chain: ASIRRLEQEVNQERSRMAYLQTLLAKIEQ

T10: 4H3438-AA
T10 chain: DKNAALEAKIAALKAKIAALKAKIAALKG

T11: 4H3073-AA
T11 chain: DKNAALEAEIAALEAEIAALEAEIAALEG

T12: 4H452-AA
T12 chain: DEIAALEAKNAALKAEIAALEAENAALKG

T13: 4H_APH
T13 chain: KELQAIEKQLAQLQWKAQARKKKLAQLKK

T14: 4H56-AA
T14 chain: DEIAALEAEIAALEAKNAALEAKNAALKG

T15: 4H3015-AA
T15 chain: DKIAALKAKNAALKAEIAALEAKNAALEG

T16: 4H3001-AA
T16 chain: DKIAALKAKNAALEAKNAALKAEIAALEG


Columns and labels:
Test in all cases: two-hybrid library CCmax;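 note: natural log of median RNA to DNA barcode read ratio; higher means stronger binding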
4H3493-AA = target: T1, 4H3493-AA; conditions: mean of both orientations
4H963-AA = target: T2, 4H963-AA; conditions: mean of both orientations
4H3381-AA = target: T3, 4H3381-AA; conditions: mean of both orientations
4H376-AA = target: T4, 4H376-AA; conditions: mean of both orientations
4H3340-AA = target: T5, 4H3340-AA
4H688-AA = target: T6, 4H688-AA
4H347-AA = target: T7, 4H347-AA; conditions: mean of both orientations
4H406-AA = target: T8, 4H406-AA; conditions: mean of both orientations
4H_BCR = target: T9, 4H_BCR; conditions: mean of both orientations
4H_GCN4 = conditions: mean of both orientations
4H3438-AA = target: T10, 4H3438-AA; conditions: mean of both orientations
4H3073-AA = target: T11, 4H3073-AA; conditions: mean of both orientations
4H452-AA = target: T12, 4H452-AA; conditions: mean of both orientations
4H_APH = target: T13, 4H_APH
4H56-AA = target: T14, 4H56-AA; conditions: mean of both orientations
GCN2_T = target: GCN2_T
4H3015-AA = target: T15, 4H3015-AA; conditions: mean of both orientations
4H3001-AA = target: T16, 4H3001-AA

Chain of 4H_GCN4 (chain, as listed by the source): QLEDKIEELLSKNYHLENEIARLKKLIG

Row | interaction score (4H3493-AA) | interaction score (4H963-AA) | interaction score (4H3381-AA) | interaction score (4H376-AA) | interaction score (4H3340-AA) | interaction score (4H688-AA) | interaction score (4H347-AA) | interaction score (4H406-AA) | interaction score (4H_BCR) | interaction score (4H_GCN4) | interaction score (4H3438-AA) | interaction score (4H3073-AA) | interaction score (4H452-AA) | interaction score (4H3340-AA; mean of both orientations) | interaction score (4H688-AA; mean of both orientations) | interaction score (4H_APH) | interaction score (4H56-AA) | interaction score (GCN2_T) | interaction score (4H3015-AA) | interaction score (4H3001-AA) | Binder
1 | -1.48 | -2.28 | -1.57 | -1.48 | 1.7 | -1.69 | -0.858 | -1.43 |  |  |  |  |  |  |  |  |  |  |  |  | DKNAALEAKIAALEAEIAALKAENAALKG [4H3340-AA]
2 | -1.38 | -1.94 | -1.43 | -1.69 |  |  | -2.08 | 2.27 | -2.15 | -2.43 | -1.83 | -0.938 | -1.76 | -1.44 | -1.46 | -2 | -1.87 | -1.9 | -1.86 | -1.82 | DKIAALKAKNAALEAKNAALKAEIAALEG [4H3001-AA]
